Test results as given in patent publication US20150030597A1 (US Dept. of Health and Human Services, published 2015).

Legend:
[1] = molecular target: T1, soluble mouse VEGFR2-hIgG.FC fusion protein (mouse; human, UniProt P35918 20-762); experiment: flow cytometry, transduced mouse CD3+CD8+ T cells stained with soluble mVEGFR2-hIgG.FC and PE anti-human IgG-FC; mean ± SEM of 5 experiments
T1 construct: Bought from R&D Systems; also called soluble mouse VEGFR-2-human IgG-FC fusion protein; mVEGFR2-hIgG.FC; not shown: human IgG Fc
T1 sequence (P35918 20-762 limits assumed): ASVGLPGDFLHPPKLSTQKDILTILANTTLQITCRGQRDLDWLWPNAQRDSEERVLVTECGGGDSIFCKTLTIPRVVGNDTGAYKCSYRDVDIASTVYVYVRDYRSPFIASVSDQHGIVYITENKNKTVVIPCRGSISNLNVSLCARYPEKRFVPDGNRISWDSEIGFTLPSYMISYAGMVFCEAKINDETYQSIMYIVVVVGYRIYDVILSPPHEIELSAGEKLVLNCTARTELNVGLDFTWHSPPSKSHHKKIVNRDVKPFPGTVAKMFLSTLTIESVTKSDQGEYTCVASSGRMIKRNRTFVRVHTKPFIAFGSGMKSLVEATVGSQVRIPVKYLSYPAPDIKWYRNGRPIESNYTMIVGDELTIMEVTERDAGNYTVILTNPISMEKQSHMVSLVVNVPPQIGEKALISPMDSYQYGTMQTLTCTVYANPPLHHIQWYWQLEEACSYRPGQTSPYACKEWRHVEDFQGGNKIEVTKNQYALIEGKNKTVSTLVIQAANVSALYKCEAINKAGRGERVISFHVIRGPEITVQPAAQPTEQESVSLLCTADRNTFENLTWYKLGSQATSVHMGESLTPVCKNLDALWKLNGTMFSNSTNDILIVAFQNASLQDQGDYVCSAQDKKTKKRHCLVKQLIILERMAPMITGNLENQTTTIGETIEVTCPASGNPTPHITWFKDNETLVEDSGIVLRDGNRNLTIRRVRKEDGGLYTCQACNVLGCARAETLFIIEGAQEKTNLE
Protocol: (§1) Mouse T cells were retrovirally transduced with retroviral vectors DC101-CD828Z or DC101-CD828BBZ CAR as described in Example 5 or were transduced with the DC101-CD8 or SP6-CD828BBZ vectors described in Comparative Example 1, or with an empty MSGV vector (lacking any of the CAR sequences). Surface expression of the retrovirally encoded transgene products in transduced CD3⁺ primary mouse T cells was determined by flow cytometry using the soluble mouse VEGFR-2-human IgG-FC fusion protein and PE-conjugated anti-human IgG-FC.
(§2) On day 4 post-transduction, cells were costained with anti-mouse CD8 antibody and CAR-specific reagents and were FACS analysed to determine the expression of transgene products in CD8⁺and CD8″ T cell subsets. Detection of DC101 CAR on retrovirally transduced mouse T cells on day 4 after transduction was achieved by indirect immunofluorescence with soluble mouse (m) VEGFR2-hIgG.FC fusion protein (R&D Systems®, Minneapolis, […].), followed by staining with a phycoerythrin (PE)-labeled goat anti-human IgG-FC antibody (eBioscience™, San Diego, Calif.). Briefly, 5×10⁵ cells were incubated with 2 μg of bovine serum albumin (BSA; Sigma-Aldrich®) or species-specific soluble mVEGFR2-hIgG.FC protein at 4° C. for 45 min. Cells were then washed in FACS buffer (phosphate buffered saline containing 1% FBS) and stained with PE-conjugated anti human IgG-FC (αchIgG.FC). At this step, mouse T cells were co-stained with peridinin chlorophyll (PerCP)-labeled anti-mouse CD8 (BD Pharmingen, San Diego, Calif.) at appropriate concentrations recommended by the manufacturer at 4° C. for 20-30 min, then washed and resuspended in FACS buffer. Cells incubated with 2 μg bovine serum albumin (BSA) and subsequently stained with PE-conjugated anti human IgG-FC (αhIgG-FC) and PerCP labeled anti-mouse CD8 served as a control.

[2] = molecular target: T1, soluble mouse VEGFR2-hIgG.FC fusion …; experiment: flow cytometry, transduced mouse CD3+CD4+ T cells stained with soluble mVEGFR2-hIgG.FC and PE anti-human IgG-FC; mean ± SEM of 5 experiments
Protocol: as §1, §2

| % Transduction (percent transgene positive cells) [1] [%] | Mean Fluorescence Intensity (MFI) [1] | % Transduction (percent transgene positive cells) [2] [%] | Mean Fluorescence Intensity (MFI) [2] | Binder |
| --- | --- | --- | --- | --- |
| 86 | 92 | 84 | 95 | DC101-CD828Z CAR (other, Chimeric antigen receptor on transduced primary mouse T cells: same as DC101-CD828BBZ but without the 4-1BB signalling domain; also called DC101-mCD828Z; MSGV-DC101-CD828Z) EVQLVETGGGLVQPGNSLKLSCATSGFIFSTTWMNWIRQTPGKRLEWLAQIEDKSNNYFISYSESVKGRFTISRDDSKSSVYLQMNNLKEEDTAIYYCSWKYRSNYYFDYWGQGVMVTVSSGSTSGSGKPGSGEGSDIVLTQSPALAVSLEQRATISCKTSQNVDYYGISYLHWYQQKPGQQPKLLIYEGSNLASGIPARFSGSGSGTDFTLTIDPVEADDIVTYYCQQSKDYPYTFGAGTKLELKAAATTTKPVLRTPSPVHPTGTSQPQRPEDCRPRGSVKGTGLDFACDIYIWAPLAGICVALLLSLIITLICYHRSRNSRRNRLLQVTTMNMTPRRPGLTRKPYQPYAPARDFAAYRPRAKFSRSAETAANLQDPNQLYNELNLGRREEYDVLEKKRARDPEMGGKQQRRRNPQEGVYNALQKDKMAEAYSEIGTKGERRRGKGHDGLYQGLSTATKDTYDALHMQTLAPR |
| 80.8 | 108 | 83.2 | 114 | DC101-CD8 (other, also called MSGV-DC101-CD8) EVQLVETGGGLVQPGNSLKLSCATSGFIFSTTWMNWIRQTPGKRLEWLAQIEDKSNNYFISYSESVKGRFTISRDDSKSSVYLQMNNLKEEDTAIYYCSWKYRSNYYFDYWGQGVMVTVSSGSTSGSGKPGSGEGSDIVLTQSPALAVSLEQRATISCKTSQNVDYYGISYLHWYQQKPGQQPKLLIYEGSNLASGIPARFSGSGSGTDFTLTIDPVEADDIVTYYCQQSKDYPYTFGAGTKLELKTTTKPVLRTPSPVHPTGTSQPQRPEDCRPRGSVKGTGLDFACDIYIWAPLAGICVALLLSLIITLICYHRSR |
| 78.2 | 75.8 | 79 | 76.5 | DC101-CD828BBZ CAR (other, also called DC101-mCD828BBZ; MSGV-DC101-CD828BBZ) EVQLVETGGGLVQPGNSLKLSCATSGFIFSTTWMNWIRQTPGKRLEWLAQIEDKSNNYFISYSESVKGRFTISRDDSKSSVYLQMNNLKEEDTAIYYCSWKYRSNYYFDYWGQGVMVTVSSGSTSGSGKPGSGEGSDIVLTQSPALAVSLEQRATISCKTSQNVDYYGISYLHWYQQKPGQQPKLLIYEGSNLASGIPARFSGSGSGTDFTLTIDPVEADDIVTYYCQQSKDYPYTFGAGTKLELKAAATTTKPVLRTPSPVHPTGTSQPQRPEDCRPRGSVKGTGLDFACDIYIWAPLAGICVALLLSLIITLICYHRSRNSRRNRLLQVTTMNMTPRRPGLTRKPYQPYAPARDFAAYRPKWIRKKFPHIFKQPFKKTTGAAQEEDACSCRCPQEEEGGGGGYELRAKFSRSAETAANLQDPNQLYNELNLGRREEYDVLEKKRARDPEMGGKQQRRRNPQEGVYNALQKDKMAEAYSEIGTKGERRRGKGHDGLYQGLSTATKDTYDALHMQTLAPR |
